Assay results reported in the supplement of paper PMC7125110.
± gives the standard error. Fewer inactive variants are shown than the library holds.

B1: glmS ribozyme (parent)
chain: AUAAAAGCGCCAGAACUACAGAAAUGUAGUUGACGAGGAGGAGGUUUAUCGAAUUUUCGGCGGAUGCCUCCAAA

Experiments:
Conditions in all cases: with glucosamine-6-phosphate
[1] = variants of: B1; assay: self-cleavage kobs at 640 uM GlcN6P; higher = faster cleavage; RNA array
Outline: (§1)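 Tiles bearing barcoded ribozyme variants, transcribed in situ by E. coli RNA polymerase on sequenced MiSeq chips, were imaged over ~14 h at 37 °C using a hybridised Cy3 probe. Glucosamine-6-phosphate was supplied at 40 μM to 10 mM in HEPES/KCl/Mg(OAc)2 buffer. kobs came from one- or two-exponential decay fits to normalised per-tile medians, and weighted Michaelis–Menten fits then provided kcat and KM.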

[2] = variants of: B1; assay: self-cleavage kobs at 2500 uM GlcN6P; higher = faster cleavage; RNA array
Outline: as §1

[3] = variants of: B1; assay: self-cleavage kobs at 10000 uM GlcN6P; higher = faster cleavage; RNA array
Outline: as §1

Row | Variant | self-cleavage kobs at 640 uM GlcN6P [1] [s⁻¹] | self-cleavage kobs at 2500 uM GlcN6P [2] [s⁻¹] | self-cleavage kobs at 10000 uM GlcN6P [3] [s⁻¹]
1 | C10A C16U C68A | 0.000489 ± 0.00017 |  | 
2 | C8A A53U C58A G59U | < 1e-05 |  | 
3 | C10A A12U G29A A39G A52G C67G | 0.000283 ± 8.4e-05 | 0.000236 ± 7.4e-05 | 
4 | C8A G40A A42U G62C | < 1e-05 |  | 
5 | C11A G59U C70G C71U | 0.000202 ± 5.2e-05 | 0.00032 ± 6.5e-05 | 0.00015 ± 4.4e-05
6 | C11G A42U G51U G62C | < 1e-05 | < 1e-05 | 
7 | G9C U69G | < 1e-05 | < 1e-05 | < 1e-05
8 | G9U G40U U47G U65A | < 1e-05 | < 1e-05 | 
9 | C8A C19A | < 1e-05 | < 1e-05 | 
10 | C8U G37C A52G | < 1e-05 |  | 
11 | G7U C58G C61G | 0.000789 ± 0.00019 |  | 
12 | C10U U46A U56C | < 1e-05 | < 1e-05 | 
13 | C10U C34G U46A A48U U69A | < 1e-05 | < 1e-05 | < 1e-05
14 | C8G A42U | < 1e-05 |  | < 1e-05
15 | G9U U30C C34U C58U G66U C70G | < 1e-05 |  | < 1e-05
16 | C8G G9U A52U | < 1e-05 | < 1e-05 | 

Row | Variant | self-cleavage kobs at 640 uM GlcN6P [1] [s⁻¹] | self-cleavage kobs at 2500 uM GlcN6P [2] [s⁻¹] | self-cleavage kobs at 10000 uM GlcN6P [3] [s⁻¹]
17 | C8U A39U G40C U56G U57G | < 1e-05 |  | 
18 | C8U A48G A64G | < 1e-05 |  | 
19 | C10U A14G U69A | 4.59e-05 ± 2.2e-05 | 4.32e-05 ± 1.9e-05 | 
20 | G7U C58G | < 1e-05 |  | 
21 | C11A C16G U57A C58G A64U | < 1e-05 | < 1e-05 | 
22 | C8A A12G G32A | < 1e-05 |  | < 1e-05
23 | G9A G13A A48G | < 1e-05 | < 1e-05 | 
24 | C11G A12G U45G U47A C71G | < 1e-05 | < 1e-05 | 
25 | C8U A14G G32U A33C | < 1e-05 |  | 
26 | G9U G13U G29U G37C | < 1e-05 | < 1e-05 | 
27 | C8U G35A U49A | < 1e-05 |  | 
28 | G9A U46C C67U | < 1e-05 |  | 
29 | G9A C10G C58U | < 1e-05 | < 1e-05 | 
30 | C10U G29A C34G C50A G63A G66C | < 1e-05 |  | 
31 | C10A G35A A42U U57G | < 1e-05 |  | 
